Results as given in US20120214208.

Experiments:
[1] = test system: p50-ligase (NF-kappaB p50 40-366 fused to N-terminus of T4 DNA ligase) (Homo sapiens / phage T4 fusion); conditions: transformation assay; no-ligase control 4
[2] = test system: ligase-PprA (phage T4 / Deinococcus radiodurans fusion); conditions: transformation assay; no-ligase control 4
T4 DNA ligase (phage T4) = conditions: transformation assay after 16 C 60 min; no-ligase control 4

In the case of “pCA24N-ompC HindIII/SpeI vector (5032 bp) and insert (1311 bp)”, the activity [1] is reported as 17 colonies, the activity [2] is reported as 53 colonies and the activity (T4 DNA ligase (phage T4)) is reported as 47 colonies.
